Reference: article PMC9825183, “A cap 0-dependent mRNA capture method to analyze the yeast transcriptome”

Legend:
[1] = test system: IFIT1 (His-SUMO removed) (Homo sapiens); experiment: MST; conditions: apparent Kd; 10 nM RNA, protein up to 1 uM; 5' cap 0 (m7Gppp), Vaccinia Capping System; MST: PBS, 5% glycerol, 0.5 mM TCEP, 0.05% Tween20, 22 C. Pull-down: 50 mM Tris pH 7.5, 150 mM NaCl (wash 250 mM), 1 mM DTT, 5 mM imidazole, 0.01% Tween 20, 3 mM
IFIT1 (6xHis) = target: T1, IFIT1 (6xHis) (Homo sapiens, UniProt P09914 1-478); experiment: pull-down; Con-B; mix of four RNAs; poly(dI-dC) 2 ug/ml; 3 mM MgCl2; MST: PBS, 5% glycerol, 0.5 mM TCEP, 0.05% Tween20, 22 C. Pull-down: 50 mM Tris pH 7.5, 150 mM NaCl (wash 250 mM), 1 mM DTT, 5 mM imidazole, 0.01% Tween 20, 3 mM MgCl2, 2 ug/ml poly(dI-dC), 4 C; conditions: protein: recombinant; tags: 6xHis (pETG10a; tag described as N-terminal); single-stranded 5' end (predicted)
T1 sequence: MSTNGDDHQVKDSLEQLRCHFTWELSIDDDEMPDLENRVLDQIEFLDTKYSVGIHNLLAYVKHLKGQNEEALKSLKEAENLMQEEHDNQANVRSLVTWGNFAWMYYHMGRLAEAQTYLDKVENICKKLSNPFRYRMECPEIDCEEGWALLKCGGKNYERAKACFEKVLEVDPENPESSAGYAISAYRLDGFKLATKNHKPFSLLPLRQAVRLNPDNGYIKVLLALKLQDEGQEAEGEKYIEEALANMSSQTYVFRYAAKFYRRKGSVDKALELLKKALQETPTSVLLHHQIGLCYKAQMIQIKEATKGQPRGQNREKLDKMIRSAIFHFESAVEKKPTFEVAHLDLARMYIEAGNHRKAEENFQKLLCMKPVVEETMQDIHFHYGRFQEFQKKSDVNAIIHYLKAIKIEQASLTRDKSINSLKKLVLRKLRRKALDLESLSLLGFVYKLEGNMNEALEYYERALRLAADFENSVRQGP

Cap 0-100-mer (Cy5)
Kd [1]: 47 nM

B1: cap 0 160-mer (ssRNA)
RNA: GAAUACACGGAAUUCCUUUUUUUUUUUUUUUUUUUUUUUUAAGAAAGGCAGACUGCCACAUGCAGCGCCUCAUUUGGAUGUGUCUGGAGUCUUGGAAGCUUGACUACCCUACGUUCUCCUACAAAUGGACCUUGAGAGCUUGUUUGGAGGUUCUAGCAGG
modifications: 5' cap 0 (m7Gppp), Vaccinia Capping System
binding result (IFIT1 (6xHis)): binds
